From patent US20240132578A1

Tests used:
[1] = target: aMLV envelope (negative control); assay: cell-based or functional assay
[2] = target: HIV-1 Env of isolate 92UG005 (Clade D) (HIV-1); assay: cell-based or functional assay
[3] = target: HIV-1 Env of isolate 93UG077 (Clade A) (HIV-1); assay: cell-based or functional assay
[4] = target: HIV-1 Env of isolate 92UG024 (Clade D) (HIV-1); assay: cell-based or functional assay
[5] = target: HIV-1 Env of isolate NL43 (positive control) (HIV-1); assay: cell-based or functional assay
[6] = target: HIV-1 Env of isolate 92BR020 (Clade B) (HIV-1); assay: cell-based or functional assay
[7] = target: HIV-1 Env of isolate IAVI-C18 (Clade C) (HIV-1); assay: cell-based or functional assay
[8] = target: HIV-1 92TH021 envelope protein (Env) on pseudotyped virus (HIV-1 strain 92TH021); assay: cell-based or functional assay
[9] = target: HIV-1 JR-CSF envelope protein (Env) on pseudotyped virus (HIV-1 isolate JR-CSF) (UniProt P20871); assay: cell-based or functional assay
[10] = target: HIV-1 94UG103 envelope protein (Env) on pseudotyped virus (HIV-1 strain 94UG103); assay: cell-based or functional assay
[11] = target: HIV-1 Env of isolate APV-6 (Clade B) (HIV-1); assay: cell-based or functional assay
[12] = target: HIV-1 envelope glycoprotein (Env) of isolate 94UG103 (HIV-1); assay: cell-based or functional assay
[13] = target: JR-FL GP120 ΔV3 (HIV-1 JR-FL); assay: ELISA, antigen-coated wells, mAb titrated; EC50 by nonlinear regression
[14] = target: HIV-1 envelope glycoprotein (Env) of isolate MG RM-A-002, subtype A (HIV-1); assay: cell-based or functional assay
[15] = target: HIV-1 envelope glycoprotein (Env) of isolate MGRM-Chronic-B-010, on pseudovirus (HIV-1); assay: cell-based or functional assay
[16] = target: HIV-1 MGRM-D-001 Env (HIV-1); assay: cell-based or functional assay
[17] = target: HIV-1 APV17 Env (HIV-1); assay: cell-based or functional assay
[18] = target: HIV-1 JRFL Env (HIV-1); assay: cell-based or functional assay
[19] = target: HIV-1 MGRM-AG-005 Env (HIV-1); assay: cell-based or functional assay
[20] = target: HIV-1 envelope glycoprotein (Env) of isolate 92BR020, on pseudovirus (HIV-1); assay: cell-based or functional assay
[21] = target: HIV-1 JR-CSF Env I323A (HIV-1 (isolate JR-CSF, clade B)) (UniProt P20871); assay: cell-based or functional assay
[22] = target: HIV-1 JR-CSF Env N355A (HIV-1 isolate JR-CSF) (UniProt P20871); assay: cell-based or functional assay
[23] = target: HIV-1 JR-CSF Env N332A (HIV-1 isolate JR-CSF) (UniProt P20871); assay: cell-based or functional assay
[24] = target: HIV-1 JR-CSF Env Q337A (HIV-1 isolate JR-CSF) (UniProt P20871); assay: cell-based or functional assay
[25] = target: HIV-1 JR-CSF Env N295A (HIV-1 (isolate JR-CSF, clade B)) (UniProt P20871); assay: cell-based or functional assay

| Substance | IC90 (neutralization of pseudovirus) [1] [µg/mL] | IC90 (neutralization of pseudovirus) [2] [µg/mL] | IC90 (neutralization of pseudovirus) [3] [µg/mL] | IC90 (neutralization of pseudovirus) [4] [µg/mL] | IC90 (neutralization of pseudovirus) [5] [µg/mL] | IC90 (neutralization of pseudovirus) [6] [µg/mL] | IC90 (neutralization of pseudovirus) [7] [µg/mL] | IC50, Neutralizing Antibody Assay, Virus/Ab Incubation 1 hour [8] [µg/mL] | IC50, Neutralizing Antibody Assay, Virus/Ab Incubation 18 hour [8] [µg/mL] | IC50, Neutralizing Antibody Assay, Virus/Ab Incubation 1 hour [9] [µg/mL] | IC50, Neutralizing Antibody Assay, Virus/Ab Incubation 18 hour [9] [µg/mL] | IC50, Neutralizing Antibody Assay, Virus/Ab Incubation 1 hour [10] [µg/mL] | IC50, Neutralizing Antibody Assay, Virus/Ab Incubation 18 hour [10] [µg/mL] | also measured |
| --- | --- | --- | --- | --- | --- | --- | --- | --- | --- | --- | --- | --- | --- | --- |
| 2F5 (antibody) | > 50 | > 50 | 33.4 | 34.4 | 19.3 | > 50 |  |  |  |  |  |  |  |  |
| 2G12 (antibody) | > 50 | > 50 | > 50 | 7.57 | 15.8 | 24.1 | > 50 |  |  |  |  |  |  |  |
| 4E10 (antibody) | > 50 | > 50 | > 50 | 23.7 | 29.6 | > 50 | > 50 |  |  |  |  |  |  |  |
| 1443_C16 (PG16) (TCN-116) (antibody) | > 50 | > 50 | > 50 | > 50 | > 50 | > 50 | 0.207 | 0.136 | 0.0435 | < 0.0025 | < 0.0025 | 0.0211 | 0.0085 | IC90 (neutralization of pseudovirus) [11]: 44.3 µg/mL |
| 1495_C14 (PGC14) (antibody) |  |  |  |  |  |  |  | > 50 | > 50 | > 50 | > 50 | > 50 | > 50 |  |
| 1496_C09 (PG9) (TCN-109) (antibody) |  |  |  |  |  |  | 0.866 | 0.0612 | 0.0571 | < 0.0025 | < 0.0025 | 0.334 | 0.0942 | IC90 (neutralization of pseudovirus) [11]: 1.96 µg/mL; IC50 [12]: 0.34 µg/mL |
| 4838_L06 (PGT-121) (antibody) |  |  |  |  |  |  |  |  |  |  |  |  |  | EC50 [13]: > 10 µg/mL |
| 4877_D15 (PGT-122) (antibody) |  |  |  |  |  |  |  |  |  |  |  |  |  | IC50, pseudovirus neutralization [14]: 0.017 µg/mL; IC50, pseudovirus neutralization [15]: 0.018 µg/mL; IC50, pseudovirus neutralization [16]: 0.867 µg/mL; IC50, pseudovirus neutralization [17]: 0.522 µg/mL; IC50, pseudovirus neutralization [18]: 0.0471 µg/mL; IC50, pseudovirus neutralization [19]: > 10 µg/mL; IC50, pseudovirus neutralization [20]: 0.021 µg/mL |
| 5114_A19 (PGT-128) (antibody) |  |  |  |  |  |  |  |  |  |  |  |  |  | EC50 [13]: 7.8 µg/mL; Fold IC50 increase relative to wild-type [21]: 3 fold |
| 5123_A06 (PGT-125) (antibody) |  |  |  |  |  |  |  |  |  |  |  |  |  | IC50, pseudovirus neutralization [14]: 0.013 µg/mL; IC50, pseudovirus neutralization [15]: 0.006 µg/mL; IC50, pseudovirus neutralization [16]: 2.31 µg/mL; Fold IC50 increase relative to wild-type [22]: 1.2 fold; IC50, pseudovirus neutralization [17]: 7.31 µg/mL; Fold IC50 increase relative to wild-type [23]: 2 fold; IC50, pseudovirus neutralization [18]: 0.0156 µg/mL; IC50, pseudovirus neutralization [19]: > 10 µg/mL; Fold IC50 increase relative to wild-type [24]: 0.8 fold; IC50, pseudovirus neutralization [20]: 0.016 µg/mL; Fold IC50 increase relative to wild-type [25]: 0.8 fold |
